{"source": "patent US20140206628A1", "about": "(University of Washington, published 2014)", "binders": {"B1": {"name": "HB80.3_s4_E94 (designed binder)", "chain": "ASTRGSGRPWKFSENVAFELALYFTNKDTPDRWAKVARYVKGRTPEEVKKHYE"}, "B2": {"name": "HB36.4_s4_E11 (designed binder)", "chain": "MSNAMDGQQLNRLLLEWIGAWDPFGLGKDAYDVEADAVLKAVYETNSAFDLAMRIHWIYNFAFKRKIPFVHAQKLARRLLELKQAASSPLP"}, "B3": {"name": "HB80.3_s4_E82 (designed binder)", "chain": "MASTRGSGRPWKFSENVAFEIALSFTNKDTPDRWAKVARYVRGRTPEEVKKHYE"}}, "key": {"[1]": {"target": "T1, A/South Carolina/1/1918 (H1N1) hemagglutinin ectodomain, biotinylated (Influenza A virus A/South …)", "experiment": "yeast surface display titration"}, "[2]": {"target": "T1, A/South Carolina/1/1918 (H1N1) …", "experiment": "yeast surface display titration", "remark": "listed apart in the source"}}, "note": "Like-named read-outs stand apart in the source and are kept apart here.", "data": [{"binder": "B1", "values": [{"measurement": "binding result", "setting": "[1]", "value": "binds"}]}, {"binder": "B2", "values": [{"measurement": "binding result", "setting": "[2]", "value": "binds"}]}, {"binder": "B3", "values": [{"measurement": "binding result", "setting": "[1]", "value": "binds"}]}]}
